# B1: GpH7-B3 variant K326_04F/GpL16-k0 (antibody, human IgG1, kappa)
# heavy: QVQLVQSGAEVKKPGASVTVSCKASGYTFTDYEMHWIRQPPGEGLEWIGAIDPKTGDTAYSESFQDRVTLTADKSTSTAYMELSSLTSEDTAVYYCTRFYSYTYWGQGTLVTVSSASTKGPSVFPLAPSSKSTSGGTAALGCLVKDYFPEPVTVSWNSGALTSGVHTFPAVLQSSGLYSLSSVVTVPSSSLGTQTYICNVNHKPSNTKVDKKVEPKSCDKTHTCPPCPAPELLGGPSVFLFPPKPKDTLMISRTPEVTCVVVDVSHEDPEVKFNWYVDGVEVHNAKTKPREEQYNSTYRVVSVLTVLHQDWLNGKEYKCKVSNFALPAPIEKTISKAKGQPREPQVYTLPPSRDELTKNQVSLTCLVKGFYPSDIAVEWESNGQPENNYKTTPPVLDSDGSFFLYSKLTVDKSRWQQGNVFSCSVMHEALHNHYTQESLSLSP
# light: DIVMTQSPLSLPVTPGEPASISCQASESLVHSNRNTYLHWYLQKPGQSPQLLIYKVSNRFSGVPDRFSGSGSGTDFTLKISRVEAEDVGVYYCSQNTHVPPTFGQGTKVEIERTVAAPSVFIFPPSDEQLKSGTASVVCLLNNFYPREAKVQWKVDNALQSGNSQESVTEQDSKDSTYSLSSTLTLSKADYEKHKVYACEVTHQGLSSPVTKSFNRGEC
# notes: Alteration in both H chains; also called Ho Ab K326_04F
# B2: GpH7-B3 variant K334_03V/GpL16-k0 (antibody, human IgG1, kappa)
# heavy: not shown
# light: B1 light
# notes: Alteration in both H chains; also called Ho Ab K334_03V
# B3: GpH7-B3 variant L328_15Y/GpL16-k0 (antibody, human IgG1, kappa)
# heavy: not shown
# light: B1 light
# notes: Alteration in both H chains; also called Ho Ab L328_15Y
# B4: GpH7-B3 variant S337_11K/GpL16-k0 (antibody, human IgG1, kappa)
# heavy: not shown
# light: B1 light
# notes: Alteration in both H chains; also called Ho Ab S337_11K
# B5: GpH7-B3 variant K326_09D/GpL16-k0 (antibody, human IgG1, kappa)
# heavy: not shown
# light: B1 light
# notes: Alteration in both H chains; also called Ho Ab K326_09D
# B6: GpH7-B3 variant S337_14T/GpL16-k0 (antibody, human IgG1, kappa)
# heavy: not shown
# light: B1 light
# notes: Alteration in both H chains; also called Ho Ab S337_14T
# B7: GpH7-B3 variant K326_08L/GpL16-k0 (antibody, human IgG1, kappa)
# heavy: not shown
# light: B1 light
# notes: Alteration in both H chains; also called Ho Ab K326_08L
# B8: GpH7-B3 variant S267_10E/GpL16-k0 (antibody, human IgG1, kappa)
# heavy: not shown
# light: B1 light
# notes: Alteration in both H chains; also called Ho Ab S267_10E
# B9: GpH7-B3 variant S324_09D/GpL16-k0 (antibody, human IgG1, kappa)
# heavy: not shown
# light: B1 light
# notes: Alteration in both H chains; also called Ho Ab S324_09D
# B10: GpH7-B3 variant S324_10E/GpL16-k0 (antibody, human IgG1, kappa)
# heavy: not shown
# light: B1 light
# notes: Alteration in both H chains; also called Ho Ab S324_10E
# B11: GpH7-B3 variant K334_09D/GpL16-k0 (antibody, human IgG1, kappa)
# heavy: not shown
# light: B1 light
# notes: Alteration in both H chains; also called Ho Ab K334_09D
# B12: GpH7-B3 variant K326_06M/GpL16-k0 (antibody, human IgG1, kappa)
# heavy: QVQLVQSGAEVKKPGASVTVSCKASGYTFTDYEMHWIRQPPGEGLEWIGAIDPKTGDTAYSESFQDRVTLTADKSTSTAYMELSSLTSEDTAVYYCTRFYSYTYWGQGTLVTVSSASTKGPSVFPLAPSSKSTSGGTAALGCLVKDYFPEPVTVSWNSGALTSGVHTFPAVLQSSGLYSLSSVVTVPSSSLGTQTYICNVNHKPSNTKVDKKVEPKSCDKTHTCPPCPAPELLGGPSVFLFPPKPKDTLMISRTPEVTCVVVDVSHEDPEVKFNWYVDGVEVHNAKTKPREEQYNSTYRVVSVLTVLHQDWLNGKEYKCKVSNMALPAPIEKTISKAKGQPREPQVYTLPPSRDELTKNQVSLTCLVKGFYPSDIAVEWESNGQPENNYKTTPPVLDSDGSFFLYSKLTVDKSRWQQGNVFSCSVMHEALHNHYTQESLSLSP
# light: B1 light
# notes: Alteration in both H chains; also called Ho Ab K326_06M
# B13: GpH7-B3 variant K334_08L/GpL16-k0 (antibody, human IgG1, kappa)
# heavy: not shown
# light: B1 light
# notes: Alteration in both H chains; also called Ho Ab K334_08L
# B14: GpH7-B3 variant P271_10E/GpL16-k0 (antibody, human IgG1, kappa)
# heavy: not shown
# light: B1 light
# notes: Alteration in both H chains; also called Ho Ab P271_10E
# B15: GpH7-B3 variant K326_10E/GpL16-k0 (antibody, human IgG1, kappa)
# heavy: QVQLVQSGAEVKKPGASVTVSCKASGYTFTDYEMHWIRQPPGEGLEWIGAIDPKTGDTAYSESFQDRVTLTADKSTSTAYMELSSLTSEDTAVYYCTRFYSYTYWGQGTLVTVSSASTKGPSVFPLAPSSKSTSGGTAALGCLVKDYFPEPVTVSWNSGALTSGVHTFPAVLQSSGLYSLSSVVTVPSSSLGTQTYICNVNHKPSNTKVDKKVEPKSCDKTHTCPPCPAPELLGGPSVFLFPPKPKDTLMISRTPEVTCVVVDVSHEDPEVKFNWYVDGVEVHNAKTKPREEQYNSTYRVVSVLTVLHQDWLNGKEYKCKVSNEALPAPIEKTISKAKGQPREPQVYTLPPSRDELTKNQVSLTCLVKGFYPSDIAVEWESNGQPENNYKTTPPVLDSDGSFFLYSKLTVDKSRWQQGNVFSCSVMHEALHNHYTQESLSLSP
# light: B1 light
# notes: Alteration in both H chains; also called Ho Ab K326_10E
# B16: GpH7-B3 variant P271_08L/GpL16-k0 (antibody, human IgG1, kappa)
# heavy: not shown
# light: B1 light
# notes: Alteration in both H chains; also called Ho Ab P271_08L
# B17: GpH7-B3 variant K334_04F/GpL16-k0 (antibody, human IgG1, kappa)
# heavy: not shown
# light: B1 light
# notes: Alteration in both H chains; also called Ho Ab K334_04F
# B18: GpH7-B3 variant S239_10E/GpL16-k0 (antibody, human IgG1, kappa)
# heavy: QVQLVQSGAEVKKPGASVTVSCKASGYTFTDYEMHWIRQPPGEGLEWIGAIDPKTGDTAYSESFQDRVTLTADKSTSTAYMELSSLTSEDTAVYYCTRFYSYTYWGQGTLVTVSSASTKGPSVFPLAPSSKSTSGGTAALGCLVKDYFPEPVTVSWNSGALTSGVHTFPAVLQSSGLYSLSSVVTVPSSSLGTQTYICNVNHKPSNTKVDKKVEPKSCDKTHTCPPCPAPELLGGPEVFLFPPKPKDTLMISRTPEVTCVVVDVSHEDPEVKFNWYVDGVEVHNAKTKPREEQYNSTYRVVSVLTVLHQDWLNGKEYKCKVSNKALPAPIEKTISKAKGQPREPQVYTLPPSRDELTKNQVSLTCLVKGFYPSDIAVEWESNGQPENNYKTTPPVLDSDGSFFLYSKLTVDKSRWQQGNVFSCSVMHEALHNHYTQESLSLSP
# light: B1 light
# notes: Alteration in both H chains; also called Ho Ab S239_10E
# B19: GpH7-B3 variant Q295_12R/GpL16-k0 (antibody, human IgG1, kappa)
# heavy: not shown
# light: B1 light
# notes: Alteration in both H chains; also called Ho Ab Q295_12R
# B20: GpH7-B3 variant K334_13S/GpL16-k0 (antibody, human IgG1, kappa)
# heavy: not shown
# light: B1 light
# notes: Alteration in both H chains; also called Ho Ab K334_13S
# B21: GpH7-B3 variant S298_09D/GpL16-k0 (antibody, human IgG1, kappa)
# heavy: not shown
# light: B1 light
# notes: Alteration in both H chains; also called Ho Ab S298_09D
# B22: GpH7-B3 variant K326_07I/GpL16-k0 (antibody, human IgG1, kappa)
# heavy: not shown
# light: B1 light
# notes: Alteration in both H chains; also called Ho Ab K326_07I
# B23: GpH7-B3 variant P271_01G/GpL16-k0 (antibody, human IgG1, kappa)
# heavy: not shown
# light: B1 light
# notes: Alteration in both H chains; also called Ho Ab P271_01G
# B24: GpH7-B3 variant S267_14T/GpL16-k0 (antibody, human IgG1, kappa)
# heavy: not shown
# light: B1 light
# notes: Alteration in both H chains; also called Ho Ab S267_14T
# B25: GpH7-B3 variant T335_01G/GpL16-k0 (antibody, human IgG1, kappa)
# heavy: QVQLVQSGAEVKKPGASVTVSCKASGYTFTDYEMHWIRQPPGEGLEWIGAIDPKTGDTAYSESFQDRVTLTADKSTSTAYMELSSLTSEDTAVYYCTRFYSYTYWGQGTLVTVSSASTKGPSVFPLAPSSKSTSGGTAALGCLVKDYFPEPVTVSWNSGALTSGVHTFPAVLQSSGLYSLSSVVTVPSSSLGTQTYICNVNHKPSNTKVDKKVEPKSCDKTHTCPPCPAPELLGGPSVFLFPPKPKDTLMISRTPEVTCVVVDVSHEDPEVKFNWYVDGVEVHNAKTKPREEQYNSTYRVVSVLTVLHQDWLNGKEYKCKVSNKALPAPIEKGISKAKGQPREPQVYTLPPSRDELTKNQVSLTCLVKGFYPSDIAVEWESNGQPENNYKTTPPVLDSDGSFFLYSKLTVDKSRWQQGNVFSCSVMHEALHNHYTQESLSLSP
# light: B1 light
# notes: Alteration in both H chains; also called Ho Ab T335_01G
# B26: GpH7-B3 variant S337_16H/GpL16-k0 (antibody, human IgG1, kappa)
# heavy: not shown
# light: B1 light
# notes: Alteration in both H chains; also called Ho Ab S337_16H
# B27: GpH7-B3 variant Q295_10E/GpL16-k0 (antibody, human IgG1, kappa)
# heavy: not shown
# light: B1 light
# notes: Alteration in both H chains; also called Ho Ab Q295_10E
# B28: GpH7-B3 variant P271_19Q/GpL16-k0 (antibody, human IgG1, kappa)
# heavy: not shown
# light: B1 light
# notes: Alteration in both H chains; also called Ho Ab P271_19Q
# B29: GpH7-B3 variant K334_05P/GpL16-k0 (antibody, human IgG1, kappa)
# heavy: not shown
# light: B1 light
# notes: Alteration in both H chains; also called Ho Ab K334_05P
# B30: GpH7-B3 variant S267_06M/GpL16-k0 (antibody, human IgG1, kappa)
# heavy: not shown
# light: B1 light
# notes: Alteration in both H chains; also called Ho Ab S267_06M
# B31: GpH7-B3 variant K326_19Q/GpL16-k0 (antibody, human IgG1, kappa)
# heavy: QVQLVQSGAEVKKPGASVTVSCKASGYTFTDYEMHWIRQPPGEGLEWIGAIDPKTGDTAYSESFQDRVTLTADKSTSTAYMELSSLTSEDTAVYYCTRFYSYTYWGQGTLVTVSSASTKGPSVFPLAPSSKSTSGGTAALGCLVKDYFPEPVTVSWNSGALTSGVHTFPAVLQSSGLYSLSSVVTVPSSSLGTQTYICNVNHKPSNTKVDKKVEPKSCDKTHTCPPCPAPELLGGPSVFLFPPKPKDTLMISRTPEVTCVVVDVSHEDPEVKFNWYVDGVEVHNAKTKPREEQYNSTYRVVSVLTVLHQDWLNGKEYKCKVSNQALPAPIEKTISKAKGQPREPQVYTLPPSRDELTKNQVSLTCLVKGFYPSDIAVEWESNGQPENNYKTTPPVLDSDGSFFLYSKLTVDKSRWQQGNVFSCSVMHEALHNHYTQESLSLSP
# light: B1 light
# notes: Alteration in both H chains; also called Ho Ab K326_19Q
# B32: GpH7-B3 variant K334_19Q/GpL16-k0 (antibody, human IgG1, kappa)
# heavy: not shown
# light: B1 light
# notes: Alteration in both H chains; also called Ho Ab K334_19Q
# B33: GpH7-B3 variant S267_18N/GpL16-k0 (antibody, human IgG1, kappa)
# heavy: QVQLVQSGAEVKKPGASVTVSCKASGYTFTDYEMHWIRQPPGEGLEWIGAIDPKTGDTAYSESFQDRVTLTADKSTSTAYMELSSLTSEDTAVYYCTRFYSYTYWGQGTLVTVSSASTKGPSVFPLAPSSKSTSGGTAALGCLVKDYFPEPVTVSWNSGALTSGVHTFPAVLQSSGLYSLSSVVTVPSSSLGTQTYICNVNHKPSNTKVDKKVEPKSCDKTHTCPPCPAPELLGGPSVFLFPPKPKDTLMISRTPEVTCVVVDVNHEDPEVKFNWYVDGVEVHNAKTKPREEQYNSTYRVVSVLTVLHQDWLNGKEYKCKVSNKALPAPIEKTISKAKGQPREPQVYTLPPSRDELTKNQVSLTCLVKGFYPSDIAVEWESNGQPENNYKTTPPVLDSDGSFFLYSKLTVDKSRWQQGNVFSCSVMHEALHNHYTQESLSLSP
# light: B1 light
# notes: Alteration in both H chains; also called Ho Ab S267_18N
# B34: GpH7-B3 variant K326_20W/GpL16-k0 (antibody, human IgG1, kappa)
# heavy: not shown
# light: B1 light
# notes: Alteration in both H chains; also called Ho Ab K326_20W
# B35: GpH7-B3 variant S267_19Q/GpL16-k0 (antibody, human IgG1, kappa)
# heavy: not shown
# light: B1 light
# notes: Alteration in both H chains; also called Ho Ab S267_19Q
# B36: GpH7-B3 variant K334_07I/GpL16-k0 (antibody, human IgG1, kappa)
# heavy: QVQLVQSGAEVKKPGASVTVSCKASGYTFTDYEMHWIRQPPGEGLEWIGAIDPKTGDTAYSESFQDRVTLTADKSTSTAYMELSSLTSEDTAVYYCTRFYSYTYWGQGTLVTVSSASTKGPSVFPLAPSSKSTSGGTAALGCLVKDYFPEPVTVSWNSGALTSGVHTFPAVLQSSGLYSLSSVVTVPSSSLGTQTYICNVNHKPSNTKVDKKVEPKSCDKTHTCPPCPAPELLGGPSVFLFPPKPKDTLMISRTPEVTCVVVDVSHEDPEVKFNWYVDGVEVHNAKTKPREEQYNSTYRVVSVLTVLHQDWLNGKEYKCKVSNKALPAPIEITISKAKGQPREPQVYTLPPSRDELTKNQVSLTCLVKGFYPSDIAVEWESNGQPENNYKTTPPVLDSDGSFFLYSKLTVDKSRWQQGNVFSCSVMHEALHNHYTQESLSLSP
# light: B1 light
# notes: Alteration in both H chains; also called Ho Ab K334_07I
# B37: GpH7-B3 variant K334_14T/GpL16-k0 (antibody, human IgG1, kappa)
# heavy: not shown
# light: B1 light
# notes: Alteration in both H chains; also called Ho Ab K334_14T
# B38: GpH7-B3 variant T335_02A/GpL16-k0 (antibody, human IgG1, kappa)
# heavy: not shown
# light: B1 light
# notes: Alteration in both H chains; also called Ho Ab T335_02A
# B39: GpH7-B3 variant K334_16H/GpL16-k0 (antibody, human IgG1, kappa)
# heavy: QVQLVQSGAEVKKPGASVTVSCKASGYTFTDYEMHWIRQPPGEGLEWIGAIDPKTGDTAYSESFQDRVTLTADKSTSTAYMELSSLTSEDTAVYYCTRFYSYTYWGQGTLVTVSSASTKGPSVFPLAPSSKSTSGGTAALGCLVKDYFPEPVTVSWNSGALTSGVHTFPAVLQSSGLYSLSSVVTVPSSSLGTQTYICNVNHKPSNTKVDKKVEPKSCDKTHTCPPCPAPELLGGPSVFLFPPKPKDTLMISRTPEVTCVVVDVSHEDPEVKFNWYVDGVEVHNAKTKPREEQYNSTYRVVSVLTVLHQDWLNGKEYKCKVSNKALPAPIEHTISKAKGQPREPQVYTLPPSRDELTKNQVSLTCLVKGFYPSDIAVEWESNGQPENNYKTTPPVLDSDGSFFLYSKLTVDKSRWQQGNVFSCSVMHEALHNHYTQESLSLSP
# light: B1 light
# notes: Alteration in both H chains; also called Ho Ab K334_16H
# B40: GpH7-B3 variant S337_18N/GpL16-k0 (antibody, human IgG1, kappa)
# heavy: not shown
# light: B1 light
# notes: Alteration in both H chains; also called Ho Ab S337_18N
# B41: GpH7-B3 variant K334_02A/GpL16-k0 (antibody, human IgG1, kappa)
# heavy: not shown
# light: B1 light
# notes: Alteration in both H chains; also called Ho Ab K334_02A
# B42: GpH7-B3 variant P271_18N/GpL16-k0 (antibody, human IgG1, kappa)
# heavy: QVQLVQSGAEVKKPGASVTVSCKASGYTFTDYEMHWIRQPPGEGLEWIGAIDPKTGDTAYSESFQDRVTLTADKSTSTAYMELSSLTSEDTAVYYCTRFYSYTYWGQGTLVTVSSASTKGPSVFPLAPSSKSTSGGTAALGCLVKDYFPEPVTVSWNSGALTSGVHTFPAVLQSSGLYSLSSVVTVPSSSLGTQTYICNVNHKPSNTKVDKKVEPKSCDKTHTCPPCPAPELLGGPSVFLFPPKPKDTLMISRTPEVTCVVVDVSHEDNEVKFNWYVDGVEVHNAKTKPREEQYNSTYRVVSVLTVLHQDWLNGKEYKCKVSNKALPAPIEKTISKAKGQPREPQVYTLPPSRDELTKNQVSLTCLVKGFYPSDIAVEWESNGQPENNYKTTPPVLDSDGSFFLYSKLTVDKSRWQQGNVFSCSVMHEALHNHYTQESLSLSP
# light: B1 light
# notes: Alteration in both H chains; also called Ho Ab P271_18N
# B43: GpH7-B3 variant K334_18N/GpL16-k0 (antibody, human IgG1, kappa)
# heavy: not shown
# light: B1 light
# notes: Alteration in both H chains; also called Ho Ab K334_18N
# B44: GpH7-B3 variant K334_15Y/GpL16-k0 (antibody, human IgG1, kappa)
# heavy: not shown
# light: B1 light
# notes: Alteration in both H chains; also called Ho Ab K334_15Y
# Target: T1, FcγRIa (human, UniProt P12314 16-292)
# T1 construct: extracellular domain; also called FcgRI; FcgRIa; not shown: His tag attached to the C terminus
# T1 sequence (P12314 16-292): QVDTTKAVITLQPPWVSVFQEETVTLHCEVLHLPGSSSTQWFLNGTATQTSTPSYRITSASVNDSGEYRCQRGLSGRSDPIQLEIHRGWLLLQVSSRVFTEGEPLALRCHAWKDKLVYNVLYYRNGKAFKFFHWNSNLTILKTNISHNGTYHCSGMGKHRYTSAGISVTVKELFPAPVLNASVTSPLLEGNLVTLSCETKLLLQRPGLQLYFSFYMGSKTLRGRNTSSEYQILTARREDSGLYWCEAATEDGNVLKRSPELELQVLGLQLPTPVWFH
# Test: SPR (Biacore), relative binding; control HoCon Ab GpH7-B3/GpL16-k0
row,Ho/Con_1a,Binder
1,102 % of control (=100),B1
2,105 % of control (=100),B2
3,104 % of control (=100),B3
4,105 % of control (=100),B4
5,106 % of control (=100),B5
6,106 % of control (=100),B6
7,101 % of control (=100),B7
8,107 % of control (=100),B8
9,106 % of control (=100),B9
10,106 % of control (=100),B10
11,108 % of control (=100),B11
12,104 % of control (=100),B12
13,108 % of control (=100),B13
14,103 % of control (=100),B14
15,105 % of control (=100),B15
16,103 % of control (=100),B16
17,106 % of control (=100),B17
18,106 % of control (=100),B18
19,101 % of control (=100),B19
20,106 % of control (=100),B20
21,106 % of control (=100),B21
22,102 % of control (=100),B22

row,Ho/Con_1a,Binder
1,106 % of control (=100),B23
2,107 % of control (=100),B24
3,106 % of control (=100),B25
4,105 % of control (=100),B26
5,105 % of control (=100),B27
6,104 % of control (=100),B28
7,106 % of control (=100),B29
8,106 % of control (=100),B30
9,105 % of control (=100),B31
10,106 % of control (=100),B32
11,107 % of control (=100),B33
12,104 % of control (=100),B34
13,104 % of control (=100),B35
14,107 % of control (=100),B36
15,106 % of control (=100),B37
16,105 % of control (=100),B38
17,106 % of control (=100),B39
18,106 % of control (=100),B40
19,106 % of control (=100),B41
20,103 % of control (=100),B42
21,108 % of control (=100),B43
22,107 % of control (=100),B44
